Experimental data from US20150202161A1, “PROCESS FOR MANUFACTURING DRUG DELIVERY FORMULATIONS” (O-RAY PHARMA, INC., priority 2012, published 2015).

Experiment: In vitro release (dissolution) of Infliximab from packed silicone cup and of lyophilized powder
Assay type: physicochemical
Conditions: release into 600 μl water with stirring at room temperature (23° C.); UV absorption at 280 nm
Method: A solid drug pellet (FIG. 4, 402.) was created by mixing 75% infliximab with 25% hydroxy propyl methyl cellulose (HPMC). This solid pellet was packed into a silicone cup (FIG. 1, 101.). The drug can only release from one end of the silicone and this end is subsequently coated with a controlled release polymer formulation of 5 μl of 10% polylactic acid (FIG. 1, 107.) to control its release. Dissolution studies were performed with lyophilized infliximab powder and infliximab packed extended release formulations. For each sample, release into 600 μl water was carried out with stirring at room temperature (23° C.). Aliquots were removed at timed intervals and analyzed with UV absorption spectroscopy at 280 nm using a Spectramax Plus384 96 well plate reader.

Substance: Lyophilized infliximab powder: TNF-α inhibitor infliximab as unformulated lyophilized powder, comparator in dissolution study
- release upon addition to solvent: releases almost immediately
